Test results taken from article PMC9641244.

Legend:
Dmc1 D311K = molecular target: T1, Dmc1 D311K (Saccharomyces cerevisiae, UniProt P25453 1-334, D311K); assay: EMSA
T1 sequence: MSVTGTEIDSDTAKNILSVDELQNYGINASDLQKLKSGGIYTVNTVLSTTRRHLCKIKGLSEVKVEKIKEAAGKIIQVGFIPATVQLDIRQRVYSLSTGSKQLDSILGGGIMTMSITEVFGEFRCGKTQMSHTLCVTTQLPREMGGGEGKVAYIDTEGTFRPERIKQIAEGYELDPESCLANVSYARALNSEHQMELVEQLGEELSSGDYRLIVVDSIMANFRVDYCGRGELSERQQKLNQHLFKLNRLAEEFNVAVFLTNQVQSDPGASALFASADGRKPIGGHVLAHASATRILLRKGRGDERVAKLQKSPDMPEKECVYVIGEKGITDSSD

Dmc1 E157K = molecular target: T2, Dmc1 E157K (Saccharomyces cerevisiae, UniProt P25453 1-334, E157K); assay: EMSA
T2 sequence: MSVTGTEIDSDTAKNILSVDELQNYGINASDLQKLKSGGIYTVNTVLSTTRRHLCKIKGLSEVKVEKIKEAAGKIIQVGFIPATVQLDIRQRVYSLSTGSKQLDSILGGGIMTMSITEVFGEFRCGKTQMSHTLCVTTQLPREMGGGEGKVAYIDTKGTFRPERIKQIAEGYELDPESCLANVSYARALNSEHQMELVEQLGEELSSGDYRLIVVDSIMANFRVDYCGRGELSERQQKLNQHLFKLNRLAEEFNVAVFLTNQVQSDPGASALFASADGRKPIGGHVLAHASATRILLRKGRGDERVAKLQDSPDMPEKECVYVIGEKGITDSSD

DMC1 D317A [1] = molecular target: T3, DMC1 D317A (Homo sapiens, UniProt Q14565 1-340, D317A); assay: EMSA
T3 sequence: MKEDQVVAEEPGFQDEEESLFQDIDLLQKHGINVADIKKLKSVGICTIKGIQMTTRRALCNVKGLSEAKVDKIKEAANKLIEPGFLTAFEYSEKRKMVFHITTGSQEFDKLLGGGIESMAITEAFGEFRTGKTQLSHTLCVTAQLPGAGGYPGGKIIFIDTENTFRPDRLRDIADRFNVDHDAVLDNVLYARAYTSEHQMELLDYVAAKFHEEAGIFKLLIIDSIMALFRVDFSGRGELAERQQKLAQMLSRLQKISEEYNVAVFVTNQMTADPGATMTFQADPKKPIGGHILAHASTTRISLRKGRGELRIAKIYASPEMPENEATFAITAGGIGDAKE

DMC1 D317K [2] = molecular target: T4, DMC1 D317K (Homo sapiens, UniProt Q14565 1-340, D317K); assay: EMSA
T4 sequence: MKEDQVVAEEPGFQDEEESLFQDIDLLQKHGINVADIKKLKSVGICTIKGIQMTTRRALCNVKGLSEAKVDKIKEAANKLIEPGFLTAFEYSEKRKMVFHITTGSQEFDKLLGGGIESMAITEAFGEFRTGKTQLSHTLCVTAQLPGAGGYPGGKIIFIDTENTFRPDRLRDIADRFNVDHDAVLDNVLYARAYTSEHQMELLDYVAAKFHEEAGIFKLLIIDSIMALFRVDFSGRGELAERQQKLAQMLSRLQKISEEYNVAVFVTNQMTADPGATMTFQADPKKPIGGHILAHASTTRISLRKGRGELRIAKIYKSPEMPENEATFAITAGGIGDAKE

DMC1 E162A = molecular target: T5, DMC1 E162A (Homo sapiens, UniProt Q14565 1-340, E162A); assay: EMSA
T5 sequence: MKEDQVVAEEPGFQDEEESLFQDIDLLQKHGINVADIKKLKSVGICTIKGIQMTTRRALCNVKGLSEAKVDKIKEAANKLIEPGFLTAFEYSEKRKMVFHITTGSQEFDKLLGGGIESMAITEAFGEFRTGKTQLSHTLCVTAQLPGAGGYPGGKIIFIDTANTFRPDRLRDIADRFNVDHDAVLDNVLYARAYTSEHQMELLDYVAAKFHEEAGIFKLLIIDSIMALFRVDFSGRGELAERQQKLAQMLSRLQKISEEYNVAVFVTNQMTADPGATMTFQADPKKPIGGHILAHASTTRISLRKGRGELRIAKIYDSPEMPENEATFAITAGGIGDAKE

DMC1 D317A [3] = molecular target: T3, DMC1 D317A; assay: BLI
DMC1 D317K [4] = molecular target: T4, DMC1 D317K; assay: BLI
DMC1 WT = molecular target: T6, DMC1 WT (Homo sapiens, UniProt Q14565 1-340); assay: BLI
T6 sequence: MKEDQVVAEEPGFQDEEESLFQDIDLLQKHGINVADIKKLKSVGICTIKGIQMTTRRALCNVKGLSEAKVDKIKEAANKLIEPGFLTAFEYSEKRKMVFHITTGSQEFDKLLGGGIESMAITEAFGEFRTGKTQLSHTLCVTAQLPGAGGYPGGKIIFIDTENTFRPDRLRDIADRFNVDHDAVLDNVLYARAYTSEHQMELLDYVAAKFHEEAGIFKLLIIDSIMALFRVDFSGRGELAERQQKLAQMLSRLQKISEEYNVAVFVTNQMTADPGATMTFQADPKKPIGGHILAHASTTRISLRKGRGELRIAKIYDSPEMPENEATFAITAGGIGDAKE

DMC1 E162K = molecular target: T7, DMC1 E162K (Homo sapiens, UniProt Q14565 1-340, E162K); assay: BLI
T7 sequence: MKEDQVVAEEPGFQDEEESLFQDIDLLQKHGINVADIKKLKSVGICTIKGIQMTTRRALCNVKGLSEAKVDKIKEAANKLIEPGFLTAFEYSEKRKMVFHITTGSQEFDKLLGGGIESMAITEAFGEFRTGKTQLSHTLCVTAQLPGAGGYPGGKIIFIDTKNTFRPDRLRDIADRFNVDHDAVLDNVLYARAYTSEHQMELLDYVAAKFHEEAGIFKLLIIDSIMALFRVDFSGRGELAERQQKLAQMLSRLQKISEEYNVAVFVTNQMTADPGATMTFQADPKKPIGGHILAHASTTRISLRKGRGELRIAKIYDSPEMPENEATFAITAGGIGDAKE

Measured: binding result

B1: pR231 90-mer (ssDNA)
DNA: AAATCAATCTAAAGTATATATGAGTAAACTTGGTCTGACAGTTACCAATGCTTAATCAGTGAGGCACCTATCTCAGCGATCTGTCTATTT
binds: Dmc1 D311K | Dmc1 E157K | DMC1 D317A [1] | DMC1 D317K [2] | DMC1 E162A

B2: pR231 90-mer biotinylated (ssDNA)
DNA: AAATCAATCTAAAGTATATATGAGTAAACTTGGTCTGACAGTTACCAATGCTTAATCAGTGAGGCACCTATCTCAGCGATCTGTCTATTT
binds: DMC1 D317A [3] | DMC1 D317K [4] | DMC1 WT | DMC1 E162K
